Results: IntAct's records for PubMed 12782684

B1: Ras-like protein 2 (Saccharomyces cerevisiae), P01120 (parent)
chain: MPLNKSNIREYKLVVVGGGGVGKSALTIQLTQSHFVDEYDPTIEDSYRKQVVIDDEVSILDILDTAGQEEYSAMREQYMRNGEGFLLVYSITSKSSLDELMTYYQQILRVKDTDYVPIVVVGNKSDLENEKQVSYQDGLNMAKQMNAPFLETSAKQAINVEEAFYTLARLVRDEGGKYNKTLTENDNSKQTSQDTKGSGANSVPRNSGGHRKMSNAANGKNVNSSTTVVNARNASIESKTGLAGNQATNGKTQTDRTNIDNSTGQAGQANAQSANTVNNRVNNNSKAGQVSNAKQARKQQAAPGGNTSEASKSGSGGCCIIS
partner: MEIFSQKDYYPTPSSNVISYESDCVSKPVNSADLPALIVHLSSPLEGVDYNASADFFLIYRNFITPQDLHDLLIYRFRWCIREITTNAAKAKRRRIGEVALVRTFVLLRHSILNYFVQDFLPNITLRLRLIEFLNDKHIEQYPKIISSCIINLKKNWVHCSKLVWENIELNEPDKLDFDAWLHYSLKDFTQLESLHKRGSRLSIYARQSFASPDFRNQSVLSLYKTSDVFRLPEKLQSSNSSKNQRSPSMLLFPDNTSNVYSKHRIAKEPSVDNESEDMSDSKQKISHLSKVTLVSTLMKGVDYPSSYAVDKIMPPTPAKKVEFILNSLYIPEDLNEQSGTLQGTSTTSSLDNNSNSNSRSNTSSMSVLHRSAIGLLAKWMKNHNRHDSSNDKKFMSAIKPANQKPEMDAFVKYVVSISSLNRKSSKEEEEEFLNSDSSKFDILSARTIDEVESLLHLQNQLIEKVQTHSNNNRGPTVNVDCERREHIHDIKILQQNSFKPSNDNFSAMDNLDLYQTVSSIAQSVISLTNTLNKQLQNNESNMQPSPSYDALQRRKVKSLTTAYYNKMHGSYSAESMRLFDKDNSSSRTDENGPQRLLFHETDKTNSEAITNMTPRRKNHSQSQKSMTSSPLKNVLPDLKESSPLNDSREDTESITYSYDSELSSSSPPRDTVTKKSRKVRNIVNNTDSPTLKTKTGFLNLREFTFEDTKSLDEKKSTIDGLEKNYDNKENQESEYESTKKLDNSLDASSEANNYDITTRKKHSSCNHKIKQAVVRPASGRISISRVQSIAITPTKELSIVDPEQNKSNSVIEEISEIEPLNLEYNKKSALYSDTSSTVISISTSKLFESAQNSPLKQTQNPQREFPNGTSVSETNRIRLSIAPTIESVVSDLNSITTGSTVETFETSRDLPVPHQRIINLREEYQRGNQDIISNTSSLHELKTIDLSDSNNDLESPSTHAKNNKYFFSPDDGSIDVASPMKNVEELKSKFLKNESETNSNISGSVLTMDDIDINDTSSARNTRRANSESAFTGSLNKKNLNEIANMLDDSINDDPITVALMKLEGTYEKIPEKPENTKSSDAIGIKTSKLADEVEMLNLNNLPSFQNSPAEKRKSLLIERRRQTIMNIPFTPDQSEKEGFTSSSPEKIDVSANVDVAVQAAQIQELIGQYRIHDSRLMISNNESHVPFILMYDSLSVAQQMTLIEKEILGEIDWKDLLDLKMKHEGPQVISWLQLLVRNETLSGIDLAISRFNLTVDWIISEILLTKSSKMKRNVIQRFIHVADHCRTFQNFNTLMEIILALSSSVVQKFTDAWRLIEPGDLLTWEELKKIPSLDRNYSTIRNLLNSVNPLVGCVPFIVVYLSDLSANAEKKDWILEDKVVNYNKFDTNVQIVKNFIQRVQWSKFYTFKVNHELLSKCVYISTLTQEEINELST

Variants of: B1
Conditions: with lte1_yeast LTE1, P07866

Row | Variant | effect of a mutation on the interaction
1 | MPLNKSNIREYKLVVVGGGGVNKSALTIQLTQSHFVDEYDPTIEDSYRKQVVIDDEVSILDILDTAGQEEYSAMREQYMRNGEGFLLVYSITSKSSLDELMTYYQQILRVKDTDYVPIVVVGNKSDLENEKQVSYQDGLNMAKQMNAPFLETSAKQAINVEEAFYTLARLVRDEGGKYNKTLTENDNSKQTSQDTKGSGANSVPRNSGGHRKMSNAANGKNVNSSTTVVNARNASIESKTGLAGNQATNGKTQTDRTNIDNSTGQAGQANAQSANTVNNRVNNNSKAGQVSNAKQARKQQAAPGGNTSEASKSGSGGCCIIS [G22N] | disrupting interaction

Variants of: B1
Conditions: with lte1_yeast LTE1, P07866
Remark: another data set of the same source

Row | Variant | effect of a mutation on the interaction
2 | MPLNKSNIREYKLVVVGGVGVGKSALTIQLTQSHFVDEYDPTIEDSYRKQVVIDDEVSILDILDTAGQEEYSAMREQYMRNGEGFLLVYSITSKSSLDELMTYYQQILRVKDTDYVPIVVVGNKSDLENEKQVSYQDGLNMAKQMNAPFLETSAKQAINVEEAFYTLARLVRDEGGKYNKTLTENDNSKQTSQDTKGSGANSVPRNSGGHRKMSNAANGKNVNSSTTVVNARNASIESKTGLAGNQATNGKTQTDRTNIDNSTGQAGQANAQSANTVNNRVNNNSKAGQVSNAKQARKQQAAPGGNTSEASKSGSGGCCIIS [G19V] | increasing interaction

Variants of: B1
Conditions: with lte1_yeast LTE1, P07866
Remark: another data set of the same source

Row | Variant | effect of a mutation on the interaction
3 | MPLNKSNIREYKLVVVGGGGVGKSALTIQLTQSHFVDEYDPTIEDSYRKQVVIDDEVSILDILDTAGQEEYSAMREQYMRNGEGFLLVYSITSKSSLDELMTYYQQILRVKDTDYVPIVVVGNKSDLENEKQVSYQDGLNMAKQMNAPFLETSAKQAINVEEAFYTLARLVRDEGGKYNKTLTENDNSKQTSQDTKGSGANSVPRNSGGHRKMSNAANGKNVNSSTTVVNARNASIESKTGLAGNQATNGKTQTDRTNIDNSTGQAGQANAQSANTVNNRVNNNSKAGQVSNAKQARKQQAAPGGNTSEASKSGSGGSCIIS [C318S] | disrupting interaction
